Source: PMC9927002 (Frontiers in Immunology, 2023)

What was measured:
Settings in all cases: one partner purified
[1] = biological target: T1, full-length N protein of HKU1 (HCoV-HKU1 isolate N1, NC_006577.2, UniProt Q5MQC6); assay: ELISA
T1 construct: also called HKU1 N; source: 293T cells, transfected (pcDNA3.1), in culture supernatant; not shown: D7-tag, C-terminal, kept

[2] = biological target: T2, full-length N protein of SARS-CoV (SARS-CoV, NC_004718.3 (Tor2), UniProt P59595); assay: ELISA
T2 construct: also called SARS-CoV N; source: 293T cells, transfected (pcDNA3.1), in culture supernatant; not shown: D7-tag, C-terminal, kept

[3] = biological target: T3, full-length SARS-CoV-2 nucleocapsid (N) protein (SARS-CoV-2, NC_045512.2 (Wuhan-Hu-1), UniProt P0DTC9); assay: BLI
T3 construct: also called SARS-CoV-2 N protein; SARS-CoV-2 N/D7-Tag; not shown: D7-tag, C-terminal, kept

Binder	binding result [1]	binding result [2]	Kd [3] [nM]	koff [3] [s⁻¹]	kon [3] [M⁻¹ s⁻¹]
N83 (antibody, V domains shown, also called N83 hmAb) VH: QVQLQESGPRLVKSSETLSLTCTVSGGSISSGSYYWNWIRQPAGKGLEWIGRVYISGVTSYNPSLKSRVTISLDISKNQFSLQLTSVTAADSAVYYCARGGMAVGAPLYYYFYGMDVWGQGTTVTVSS VL: DVVMTQSPLSLPVTPGEPASISCRSSQSLLHSNGYNYVDWYLQKPGQSPQLMIYLGSNRASGVPDRFSGSGSGTHFTLKISRVEAEDVGVYYCMQALQTLSITFGQGTRLEIK	no binding (tested: 10 µg/ml)	binds	1.76	0.00113	639000
3B7 (antibody, V domains shown, also called 3B7 hmAb) VH: QMQLVQSGAEVKKPGASVRVSCKVSGYSLTELPMHWVRQAPGKGLEWVGSFDPQDAETTYAQRFQGRVAMTEDTSTDTAYMELSSLRSEDTAVYYCATPAPTIVGVVIYALHIWGQGTMVTVSS VL: EIVLTQSPGTLSLSPGERATLSCRASQRVSDNSLAWYQQKPGQAPSLLIFAASIRAPGIPDRISGTGSGTDFTLTINRLEPEDFVVYFCLQYTTSPPLTFGGGTKLEIK	no binding (tested: 10 µg/ml)	binds	1.94	0.000689	355000
N31 (antibody, V domains shown, also called N31 hmAb) VH: QMQLVQSGAEVKKPGSSVKVSCKASGGTFSSYGISWVRQAPGQGLEWMGGIIPILGTANYAQRFQGRIALTADESTSTAYMEVSSLRSEDTAVYYCARGMWSNPPGYCCSYMDVWGKGTTVTVSS VL: EIVLTQSPATLSVSPGERVTLACRASQSLRSKLAWYQQKPGQAPRLLIYDASTRATGFPARFSGSGSGTEFTLTISSLQSEDFAVYYCQQYSNWPRTFGQGTKLEIK	no binding (tested: 10 µg/ml)	binds	< 0.001	< 1e-07	174000
N3 (antibody, V domains shown, also called N3 hmAb) VH: QMQLVQSGAEVKRPGSSVKVSCKASGGTFSVYAISWVRQAPGQGLEWMGGIIPIFGTANYAQKFQGRVTLTADESTSTAYMELSSLSSEDTAVYYCARGGYCSGANCPKWGEWSHSYNYMDVWGKGTTVTVSS VL: not shown	no binding (tested: 10 µg/ml)	binds	< 0.001	< 1e-07	157000
N5 (antibody, V domains shown, also called N5 hmAb) VH: QVQLVQSGAEVKKPGSSVKVSCKASGGTFSSYAIGWVRQAPGQGLEWMGAIIPIFGTTIFAQKFQGRVTITADESTTTAYMELSSLRSDDTAVYYCARGGGGVERGVILTRWFDPWGQGTLVTVSS VL: QSVLTQPPSVSAAPGQKVTLSCSGSSSNIGNNHVSWYQQLPGTAPKLLIYDNNKRPSGIPDRFSGSKSGTSATLGITGLQTGDEADYYCGTWDNSLSAGVFGGGTKLTVV	no binding (tested: 10 µg/ml)	binds	< 0.001	< 1e-07	137000
